Data reported in paper PMC3521592 (Biochemistry, 2012).
Like-named read-outs stand apart in the source and are kept apart here.

Columns and labels:
[1] = target: T1, p300CH1, CH1 domain of human p300 (residues 323–424), untagged (human, UniProt Q09472 323-424); test: pull-down
[2] = target: T1, p300CH1, CH1 domain of human p300 …; test: AUC
[3] = target: T1, p300CH1, CH1 domain of human p300 …; test: AUC; remark: listed apart in the source
[4] = target: T2, untagged HPV16-E7_(1–98) (human papillomavirus 16 (HPV16)), P03129; test: AUC; details: remark: other sources report otherwise
T2 chain: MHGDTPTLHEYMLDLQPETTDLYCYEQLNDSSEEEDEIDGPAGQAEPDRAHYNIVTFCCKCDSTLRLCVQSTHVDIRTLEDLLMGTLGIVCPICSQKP

T1 sequence (Q09472 323-424): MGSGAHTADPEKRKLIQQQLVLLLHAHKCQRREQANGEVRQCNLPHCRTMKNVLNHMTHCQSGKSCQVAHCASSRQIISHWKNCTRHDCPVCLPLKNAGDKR

B1: GST-HPV16-E7_(1–46) (domain or fragment)
chain: MHGDTPTLHEYMLDLQPETTDLYCYEQLNDSSEEEDEIDGPAGQAE
- binding result [1]: binds

B2: 6xHis-Ad5-E1A_(1–138) (domain or fragment)
chain: MRHIICHGGVITEEMAASLLDQLIEEVLADNLPPPSHFEPPTLHELYDLDVTAPEDPNEEAVSQIFPDSVMLAVQEGIDLLTFPPAPGSPEPPHLSRQPEQPEQRALGPVSMPNLVPEVIDLTCHEAGFPPSDDEDEE
- stoichiometry N [2]: 1

B3: untagged Ad5-E1A_(1–77) (domain or fragment)
chain: MRHIICHGGVITEEMAASLLDQLIEEVLADNLPPPSHFEPPTLHELYDLDVTAPEDPNEEAVSQIFPDSVMLAVQEG
- stoichiometry N [2]: 1

B4: untagged HPV16-E7_(1–98) (natural protein)
chain: MHGDTPTLHEYMLDLQPETTDLYCYEQLNDSSEEEDEIDGPAGQAEPDRAHYNIVTFCCKCDSTLRLCVQSTHVDIRTLEDLLMGTLGIVCPICSQKP
- stoichiometry N [3]: 1
- stoichiometry N [4]: 2

B5: 6xHis-Ad5-E1A_(1–189) (domain or fragment)
chain: MRHIICHGGVITEEMAASLLDQLIEEVLADNLPPPSHFEPPTLHELYDLDVTAPEDPNEEAVSQIFPDSVMLAVQEGIDLLTFPPAPGSPEPPHLSRQPEQPEQRALGPVSMPNLVPEVIDLTCHEAGFPPSDDEDEEGEEFVLDYVEHPGHGCRSCHYHRRNTGDPDIMCSLCYMRTCGMFVYSPVSE
- stoichiometry N [2]: 1

B6: untagged HPV16-E7_(1–51) (domain or fragment)
chain: MHGDTPTLHEYMLDLQPETTDLYCYEQLNDSSEEEDEIDGPAGQAEPDRAH
- stoichiometry N [3]: 1
